Measured values published in paper PMC3461476, “Functional expression of a penicillin acylase from the extreme thermophile Thermus thermophilus HB27 in Escherichia coli” (Microbial Cell Factories, 2012).

What was measured:
Experiment in all cases: initial rates of hydrolysis, fluorescamine detection of primary amine product
[1] = target: T1, TthPAC (Thermus thermophilus, UniProt Q72G76, DEL247-255); type: biochemical; details: 20 mM MES pH 5.5, 65 °C; kcat unit taken from kcat/Km in mM^-1.seg^-1
T1 construct: gene TT_C1972; One gene: precursor without its first 32 residues (membrane anchor), 2223 bp insert in pET28a, His6-tag (20 aa) at N-terminus of alpha subunit kept
Text: (§1) initial rates of hydrolysis, fluorescamine detection of primary amine product on TthPAC

[2] = substrate: CC/C=C/CC(=O)N[C@@H]1C(=O)N2[C@@H]1SC(C)(C)[C@@H]2C(=O)O; type: biochemical, Thermus thermophilus; details: 20 mM MES pH 5.5, 65 °C, kcat unit taken from kcat/Km in mM^-1.seg^-1
Text: as §1

[3] = substrate: CC1(C)S[C@@H]2[C@H](NC(=O)COc3ccccc3)C(=O)N2[C@H]1C(=O)O; type: biochemical, Thermus thermophilus; details: 20 mM MES pH 5.5, 65 °C, kcat unit taken from kcat/Km in mM^-1.seg^-1
Text: as §1

[4] = substrate: CCCCCC(=O)N[C@@H]1C(=O)N2[C@@H]1SC(C)(C)[C@@H]2C(=O)O; type: biochemical, Thermus thermophilus; details: 20 mM MES pH 5.5, 65 °C, kcat unit taken from kcat/Km in mM^-1.seg^-1
Text: as §1

[5] = substrate: CCCCCCCC(=O)N[C@@H]1C(=O)N2[C@@H]1SC(C)(C)[C@@H]2C(=O)O; type: biochemical, Thermus thermophilus; details: 20 mM MES pH 5.5, 65 °C, kcat unit taken from kcat/Km in mM^-1.seg^-1
Text: as §1

Molecule	K m (mM) [1]	Km [2] [mM]	kcat [2] [s⁻¹]	kcat/Km [2] [M⁻¹ s⁻¹]	Km [3] [mM]	kcat [3] [s⁻¹]	kcat/Km [3] [M⁻¹ s⁻¹]	Km [4] [mM]	kcat [4] [s⁻¹]	kcat/Km [4] [M⁻¹ s⁻¹]	Km [5] [mM]	kcat [5] [s⁻¹]	kcat/Km [5] [M⁻¹ s⁻¹]
CC1(C)S[C@@H]2[C@H](NC(=O)Cc3ccccc3)C(=O)N2[C@H]1C(=O)O [Penicillin G]	~ Approx. 2.90 mM	–	–	–	–	–	–	–	–	–	–	–	–
TthPAC (Thermus thermophilus HB27; DEL247-255) (protein, One gene: precursor without its first 32 residues (membrane anchor), 2223 bp insert in pET28a, His6-tag (20 aa) at N-terminus of alpha subunit kept) LYLRASLPQGEGRIALEGLSAPVEVVRDGKGVVRIRAATLKDLFFAQGFVHAQERLWQMEFQRRVGQGRLSEILGEATLPQDRFLRTWGFYRAARAAYGKLYPEEKEAVDAYAAGVNAFLASGAPLPPEFRLLGFRPEPWTGPDVLVWAKMMSYDLSGNWEEELKRHRLLARGVSPKRLLELKPPYPEDAPTVLRAEDLKLPLKREEAPSALLRSNNWVVAGSRTETGKPFLANDPHLALQAPSLWFLMALEAPGLRAIGATLPGLPGVVIGRNERIAWGVTNVGADVEDLYLLEEVEGRGYRYKGRVVPYGVREEVIRVKGGREEVLKVRETVYGPVITDALEDPPKTPMALRWVSLDEEDHILMAFLGVNRAGNWEEFKKALLPYSAPSQNFVYADVEGNIGYIAPGKFPVRKEGHTGMVPVPGNGEWDWLGYRRPEEWPQAFNPARGYLVTANHKVTPKGFPYALTYDWAEPYRAERIEELLLAKEKLSLEDMKAIQQDQKSLLYRDFRPVLELLTPLSEGARAWRDRLLAWDGTMAPGSEEALVFALWYTELTRLPQREVGEAYWDEPRYLLKALKEGDKNCDQPETEYRESCLDYAALALERALDRKEALGARAWGEVHRARFPHAVLTHTPLKRLSDREVAFGGDRYTVNVGPFDPETLAMGHGPSYRQIVDLSDMEGSLFVHPMGQSGHFLSRHYADLLPLWQRGDYLPMRFGAPLGRTLLLEPLPSP	–	0.94 ± 0.18	0.90 ± 0.03	960	0.74 ± 0.11	0.57 ± 0.01	770	0.98 ± 0.22	1.46 ± 0.06	1490	0.32 ± 0.05	5.16 ± 0.13	16100
